Data taken from patent US20210253725A1 (BIONTECH, published 2021).
Residue numbers refer to the chain shown, from its start. Values belong to the binder of their own block, whether it stands above or below them.

Molecular target: T1, CD27 expressed on the cell surface of HT1080_CD27 cells (human, UniProt P26842 20-260)
T1 sequence (looked up): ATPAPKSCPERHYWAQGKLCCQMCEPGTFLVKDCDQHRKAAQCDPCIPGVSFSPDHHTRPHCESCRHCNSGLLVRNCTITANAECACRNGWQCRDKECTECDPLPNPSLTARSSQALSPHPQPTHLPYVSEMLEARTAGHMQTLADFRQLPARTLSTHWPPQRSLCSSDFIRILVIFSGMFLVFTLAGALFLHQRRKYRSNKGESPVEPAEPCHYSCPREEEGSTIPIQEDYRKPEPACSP
Experiment: cell-based or functional assay

B3: P018.S.04.A.A05 (antibody, V domains shown)
VH: QSLEESGGRLVTPGTPLTLTCTASGFTISSYEMGWVRQAPGEGLEYIGWIASGGSTFYASWAKGRFTISRTSTTVDLTITDLRPSDTGTYFCARGYVEFKLWGPGTLVTVSS
VL: DIVMTQTPASVSESVGGTVTIKCQASQSIGSYLSWYQQKPGQPPKVLIYRASTLESGVPSRFEGSGSGTQFTLTISDLESADAATYYCQGYHSTSGYVAFGGGTELVVK
EC 50 (IL-8 release, cross-linked): 0.408 µg/mL

B4: P018.S.01.A.H06 (antibody, V domains shown)
VH: QEQLKESGGRLVKPDETLTITCTASGFSLSRYDMSWVRQAPGKGLEWIGSIWSDGDTDYANWAKGRFTISKTSTTVDLKITSPTTEDTATYFCARGYTAWSLWGPGTLVTVSS
VL: ALVMTQTPSPVSAAVGGTVTISCQSSESVVGNNALSWFQQKPGQPPKLLNYQASTLASGVSSRFSGSGSGTQFTLTISGVQSDDAATYYCQGTYYSSGWYFAFGGGTEVVVK
EC 50 (IL-8 release, cross-linked): 2.35 µg/mL

B5: P018.S.06.A.A02 (antibody, V domains shown)
VH: QEQLVESGGGLVQPEGSLTLTCTSSGFSLNSNYYISWVRQAPGKGLEWIACIDAGSGSTWYASWVKGRFTISKTSSTTVTLQMTSLTAADTATYFCARDDIGTSYEYYFGLWGPGTLVTVSS
VL: DVVLTQTPASVSEPVGGTVTIKCQASQTISSYLAWYQQKSGQPPKLLIYSASTLASGVSSRFKGSGSGTEYTLTISDLESADAATYYCQTYYGSDSYVFGGGTEVVVK
EC 50 (IL-8 release, cross-linked): 0.575 µg/mL

B6: P018.S.02.A.G03 (antibody, V domains shown)
VH: QSVEESGGRLVTPGTPLTLTCTVSGFSLSSYVMSWVRQAPGKGLEWIGYIDYGGTAYYASWAKGRFTISKTSTTVELKITSPTIEDTATYFCARGGYGGYILVTGLWGPGTLVTVSS
VL: DIVMTQTPASVSEPVGGTVTIKCQASQTIISYLSWYQQKPGQPPKLLIYGASTLASGVPSRFKGSGSVTEYTLTISDLESADAATYYCQTYYGGGPFGNGFGGGTEVVVK
EC 50 (IL-8 release, cross-linked): 0.526 µg/mL

B7: P018.S.04.A.F04 (antibody, V domains shown)
VH: QSVEESGGRLVTPGTPLTLTCTVSGFSLSNYAMSWVRQAPGKGLEWIGIIYASGTTYYARWAKGRFTISRTSTTVDLKISSPTTEDTATYFCAREYDSYDYAYGSSIYAFDPWGPGTLVTVSS
VL: AYDMTQTPSSVSAAVGGTVTIKCQASESIYSNLAWYQQKPGQRPKLLIYRASTLASGVSSRFKGSGSGTQFTLSISGVESADAATYYCQQGYSSSNVDNVFGGGTEVVVK
EC 50 (IL-8 release, cross-linked): 1.44 µg/mL

B8: P018.S.01.A.B04 (antibody, V domains shown)
VH: QEQLEESGGRLVTPGGTLTLTCTASGFSLSSYDMSWVRQAPGKGLEWIGYIWSDGNTDYASWAAGRFTASRASTTVDLKMTSLTTEDTATYFCARGYTGFFLWGPGTLVTVSS
VL: DVVMTQTPSSVSAAVGGTVTIKCQASQSIGSSYLSWYQQKPGQPPKLLIYKTSTLASGVPSRFKGSGSGTEFTLTISDLESDDAATYYCQCTYYGGSWRVAFGGGTEVVVK
EC 50 (IL-8 release, cross-linked): 0.856 µg/mL

B9: P018.S.01.A.D04 (antibody, V domains shown)
VH: B8 VH with S31N
VL: B8 VL with A13T, G17D
EC 50 (IL-8 release, cross-linked): 1.3 µg/mL

B11: P018.S.08.A.G02 (antibody, V domains shown)
VH: QSVEESGGRLVTPGTPLTLTCTVSGFSLSTYAMSWVRQAPGKGLEWIGMNTRSGIIYYASWAKGRFTISKTSTTVHLKITSPTTEDTATYFCARDLYADVSGYYLGLWGPGTLVTVSS
VL: AQVLTQTPSSVSAAVGGTVTINCQASQSLYNNKNLAWYQQKPGQPPKLLIYYASTLASGVSSRFKGSGSGTQFTLTISDLESDDAATYYCQGEFICSSADCVVFGGGTAVVVK
EC 50 (IL-8 release, cross-linked): 1.94 µg/mL

B13: P018.S.01.A.F05 (antibody, V domains shown)
VH: QEQLEESGGDLVKPEGSLTLTCTASGFSFSSSYWICWVRQAPGKGLEWIGCIITGRGNTYYANWAKGRFTISKTSSTTVTLQMTSLTAADTAIYSCARGPGGADPVNLWGPGTLVTVSS
VL: DVVMTQTPASVSEPVGGTVTIKCQASQSIYSNLAWYQQKPGQPPKLLIYRASTLTSGVPSRFKGSGSGTQFTLTISDLESADAATYYCQCTYDGSSYVPNAFGGGTEVVVK
EC 50 (IL-8 release, cross-linked): 1.32 µg/mL

B15: P018.S.01.A.H02 (antibody, V domains shown)
VH: QSVEESGGRLVTPGTPLTLTCTASGFSLSSYHMQWVRQAPGKGLEWIGIIYAGSGNTWYASWAKGRFTISKTSTTVDLKITSPTTEDTAAYFCARQPGGDASDTQLDLWGQGTLVTVSS
VL: AAVLTQTASPVSAAVGGTVTINCQSSQSVFDHNQLSWFQHKPGQSPKLLIYRASTLASGVPSRFKGSGSGTQFTLTISDVQSDDAATYYCLGGYSSSSDTVFGGGTEVVVK
EC 50 (IL-8 release, cross-linked): 1.11 µg/mL

B16: P018.S.07.A.C04 (antibody, V domains shown)
VH: QEQLVESGGGLVQPEGSLTLTCTASGFSFSSRFWICWVRQAPGKGLEWIACIYGGSTSATYDASWAKGRFTISKTSSTTVTLQMTSLTAADTATYFCTRLPTYDAYVFNLWGPGTLVTVSS
VL: AIVMTQTPSSKSVPVGATATINCQASESVFSNNYLSWYQQKPGRSPKLLIYEASKLASGVPSRFSGSGSGTQFTLTISDVVSDDAATYYCGGYKSNNVDGYAFGGGTEVVVK
EC 50 (IL-8 release, cross-linked): 0.801 µg/mL

B17: P018.S.03.A.A02 (antibody, V domains shown)
VH: QSVEESGGRLVTPGTPLTLTCTVSGFSLSSYDMTWVRQAPGEGLEWIGYINTDTTTYYASWAKGRFTISRTSTTVDLEITSPTTEDTATYFCARGNDPIYIDLWGQGTLVTVSS
VL: AAVLTQTPSPVSAAVGGTVSISCQSSKSVINNNWLGWYQQKPGQPPKLLISYASTLASGVPSRFSGSGSGTQFTLTISDVQSDDAATYYCAGAYSPDSENAFGGGTEVVLK
EC 50 (IL-8 release, cross-linked): 0.835 µg/mL

B18: P018.S.07.A.G02 (antibody, V domains shown)
VH: QSVEESGGRLVTPGTPLTLTCTVSGFSLSSYDMSWVRQAPGKGLEWIGWITTDGGTDYASWAKGRFTVSKASTTVDLKITSPTTEDTATYFCARGYASFNLWGQGTLVTVSS
VL: AQVLTQTPSSVSAAVGGTVTINCQSSQSVLSNSYLAWYQQKPGQPPKLLIYAASSLASGVPSRFKGSGSGTQFTLTISDLESDDAATYYCQGTDYSGGWYVAFGGGTEVVVK
EC 50 (IL-8 release, cross-linked): 0.43 µg/mL

Results, then the binder that gave them:

EC 50 (IL-8 release, cross-linked): 0.34 µg/mL
B1: P018.S.10.A.C05 (antibody, V domains shown)
VH: QSVEETGGRLVTPGTPLTLTCAASGVSLSGYYAMSWVRQAPGKGLEWIGYLDATGSTYYASWVKGRFIISRPSTTVDLQITSPTIEDTATYFCARGSYDGVGYNWGLWGQGTLVTVSS
VL: DIVMTQTPASVSEPVGGTVTIKCQASESIYNGLAWYQQKPGQPPKRLIYGASTLTSGVPSRFKGSGSGTEFTLTISDLESDDAATYYCQSNYGSGSRSNYIFGGGTEVVVK

EC 50 (IL-8 release, cross-linked): 0.502 µg/mL
B2: P018.S.09.A.E05 (antibody, V domains shown)
VH: QSLEESGGRLVTPGTPLTLTCTVSGIDLSRYDMSWVRQAPGKGLEWIGFIGASGSTYYASWVKGRFTISKTSTTVDLKITSPTTEDTATYFCAREETDSRGYYYSLWGPGTPVTVSS
VL: ALVMTQTPASVEAAVGGTVTINCQASQSISDLLGWYQQKPGQPPKLLIYDASDLASGVPSRFSGSGSGTEFTLTISGVQSDDAATYYCQQGYSINNVDNAFGGGTEVVVK

EC 50 (IL-8 release, cross-linked): 0.431 µg/mL
B10: P018.S.10.A.H01 (antibody, V domains shown)
VH: QEQLEESGGDLVKPGASLTLTCTASGFSFSSDYDMCWVSQAPGKGLEWIACIIGGSSDSTWYASWAKGRFTISKTSSTTVTLQVTGLTAADTATYFCARNVGFSYYDLWGPGTLVTVSS
VL: B11 VL with S10P, D79G, L80V, E81Q, I95S, A99G, V102F, V103A, A109E

EC 50 (IL-8 release, cross-linked): 1.02 µg/mL
B12: P018.S.09.A.C03 (antibody, V domains shown)
VH: QSVEESGGRLVTPGTPLTLTCTVSGFSLSSYGMIWVRQAPGKGLEWIGWISSNDNKYYARWAKGRFTISKTSTTVDLKMTSLTTEDTATYFCVRNGVYNTGNYFDLWGQGTLVTVSS
VL: AQVLTQTPSSVSAAVGGTVTINCQASQSLYNNKNLAWYQQKPGQPPKFLIYTASSLASGVSSRFKGSGSGTQFTLTISDVQSDDAATYYCQGEFDCDSDDCFAFGGGTEVVVK

EC 50 (IL-8 release, cross-linked): 0.387 µg/mL
B14: P018.S.09.A.H03 (antibody, V domains shown)
VH: QSLEESGGRLVTPDESLTLTCTVSGFSLSSNAMIWVRQAPGKGLEWIGIIDTGGSAYYASWAKGRFTISKTSTTVDLKITSPTTEDTATYFCARDRYTDSSGYNLWGQGTLVTVSS
VL: DIVMTQTPASVEAAVGGTVTIKCQASQSIGASLAWYKQKPGQPPKLLIYSASWLASGVPSRFKGSGSGTEFTLTISDLASADAATYYCQSYYYRSSSGYGYAFGGGTEVVVK

EC 50 (IL-8 release, cross-linked): 0.722 µg/mL
B19: P018.S.10.A.E01 (antibody, V domains shown)
VH: QEQLVESGGGLVQPEGSLTLTCTATGIDFSTNYRSCWVRQAPGKGLEWIACIDTDDSDSTYYASWAKGRFTISKTSSTTVTLQMTSLTAADTATYFCTRAYTTSDYAWSFYLWGPGTLVTVSS
VL: DLVMTQTPASVEAAVGGTVTIKCQTSQSISKFLNWYQQTPGQPPKLLIYRASTLESGVPSRFEGSGSGTEFTLTISDLESADAATYYCQCTYGGTSGSVWAFGGGTEVVVK

EC 50 (IL-8 release, cross-linked): 0.561 µg/mL
B20: P018.S.09.A.D05 (antibody, V domains shown)
VH: QSLEESGGRLVTPGGSLTLTCTVSGIDLSSYAMDWVRQAPGKGLEWIGVIGAGGSTYYASWANGRFTISKTSTTVDLKISSPTTEDTATYFCARDIGGDYSSRYYFSLWGPGTLVTVSS
VL: DIVMTQTPASVEAAVGGTVTIKCQASQSTSTALAWYQQKPGQRPKLLIYDSSKLASGVPSRFSGSGSGTEFTLTISGVQSDDAASYYCQQGYNINNVAFGGGTEVVVK
